Laboratory results as given in paper PMC4519933, “Crystal Structure of a Hidden Protein, YcaC, a Putative Cysteine Hydrolase from Pseudomonas aeruginosa, with and without an Acrylamide Adduct” (International Journal of Molecular Sciences, 2015).

Experiments:
[1] = target: the molecule itself; experiment: crystal structure; crystal form I, space group C2, 2.34 Å; 9 mg/mL SeMet PlcHR2 preparation in 50 mM NaCl, 50 mM Tris-HCl pH 7.4, 0.1 mM TCEP; reservoir 26% PEG 3350, 400 mM (NH4)2SO4, 70 mM bis-Tris-HCl pH 6.75, 2,5-hexanediol additive; eight chains in the asymmetric unit
[2] = target: the molecule itself; experiment: crystal structure; crystal form II, space group P21, 2.56 Å; 5.3 mg/mL SeMet PlcHR2 preparation in 50 mM NaCl, 5 mM MgCl2, 50 mM Tris-HCl pH 7.4, 0.1 mM TCEP; reservoir 20% PEG 3350, 200 mM Na malonate, 100 mM MES-NaOH pH 6.75; eight chains in the asymmetric unit

Protein | stoichiometry N [1] | stoichiometry N [2]
Pseudomonas aeruginosa YcaC, crystal form I (Cys118 linked to propanamide) (enzyme, P. aeruginosa (endogenous in PADD1976), UniProt Q9I4D6 2-205, looked up, Cys118 linked to a propanamide (acrylamide adduct); bacteria grown in minimal media with L-selenomethionine (SeMet), monomer 205 residues, 22.5 kDa; the N-formylmethionine appears to have been cleaved off; residues 204 and 205 disordered in the crystal; Not cloned: crystallised as a contaminant of a SeMet PlcHR2 preparation; identity found by molecular replacement and side chain densities; also called Pa YcaC; PA1202) SFTYKRLDKNDAAVLFVDHQAGLLSLVRDFSPDEFKNNVLALADIARFFNLPTILTTSFEDGPNGPLVPELKEMFPQAPYIARPGNINAWDNEDFVKAVKATGKKQLIIAGVVTDVCVAFPTLSALEEGFDVFVVTDASGTFNPVVRDAAWARMTAAGAQLMNWFSVGCELHRDWRNDIEGFGAILGGHLPAYANLIQSFGTKK | 8 | –
Pseudomonas aeruginosa YcaC, crystal form II (Cys118 as S-mercaptocysteine) (enzyme, P. aeruginosa (endogenous in PADD1976), UniProt Q9I4D6 2-205, looked up, Cys118 covalently modified to S-mercaptocysteine; bacteria grown in minimal media with L-selenomethionine (SeMet), monomer 205 residues, 22.5 kDa; the N-formylmethionine appears to have been cleaved off; residues 204 and 205 disordered in the crystal; Same protein and preparation route as m1; differs in the modification of Cys118 seen in the crystal; also called Pa YcaC; PA1202) SFTYKRLDKNDAAVLFVDHQAGLLSLVRDFSPDEFKNNVLALADIARFFNLPTILTTSFEDGPNGPLVPELKEMFPQAPYIARPGNINAWDNEDFVKAVKATGKKQLIIAGVVTDVCVAFPTLSALEEGFDVFVVTDASGTFNPVVRDAAWARMTAAGAQLMNWFSVGCELHRDWRNDIEGFGAILGGHLPAYANLIQSFGTKK | – | 8
